The values below come from publication PMC5708134.

Substrate in the data set: CC1=CC(=O)c2ccccc2C1=O
Description: Chemical redox cycling by DCXR. Format: biochemical, human. As to conditions: other: redox cycling; quinone varied; 200 μM NADPH fixed; pH 7.0.

B1: recombinant human DCXR (Homo sapiens) (protein)
chain: MELFLAGRRVLVTGAGKGIGRGTVQALHATGARVVAVSRTQADLDSLVRECPGIEPVCVDLGDWEATERALGSVGPVDLLVNNAAVALLQPFLEVTKEAFDRSFEVNLRAVIQVSQIVARGLIARGVPGAIVNVSSQCSQRAVTNHSVYCSTKGALDMLTKVMALELGPHKIRVNAVNPTVVMTSMGQATWSDPHKAKTMLNRIPLGKFAEVEHVVNAILFLLSDRSGMTTGSTLPVEGGFWAC
For the protein B1, the Km (usually the concentration of substrate that gives half-maximal velocity) was 365.80 µM; the kcat (commonly the number of substrate molecules converted per active site and unit of time at saturation) turned out to be 0.022 s⁻¹; the kcat/Km – broadly, the second-order rate constant that governs catalysis at low substrate concentration – was determined as 66.7 M⁻¹ s⁻¹.
